Measurements as given in patent US7267993 (AUBURN UNIVERSITY, dated 2007).

B1: DTFAKSMQ (other)
major coat protein pVIII carrying the foreign peptide: DTFAKSMQ
notes: landscape phage immobilized in ELISA wells
B2: VPEYKGAS (other)
major coat protein pVIII carrying the foreign peptide: VPEYKGAS
notes: landscape phage immobilized in ELISA wells; belongs to group m4
B3: EKTLAYNQ (other)
major coat protein pVIII carrying the foreign peptide: EKTLAYNQ
notes: as for B1
B4: EKTLAYSQ (other)
major coat protein pVIII carrying the foreign peptide: EKTLAYSQ
notes: as for B1
B5: VPEYTGPS (other)
major coat protein pVIII carrying the foreign peptide: VPEYTGPS
notes: as for B2

Tests used:
[1] = target: T1, β-galactosidase from Escherichia coli (Escherichia coli, UniProt P00722 2-1024 = β-galactosidase); experiment: direct ELISA: phage immobilized in wells, unlabeled β-galactosidase in solution at varied concentration [bottom panel]
T1 construct: Unlabeled in the ELISA; in solution in all assays; also called b-galactosidase
Source text: (§1) Each binding curve is labeled with the altered amino acid sequence of the foreign peptide carried by the phage being tested (V_o=vector control). ELISA signal (mOD/min) is shown as a function of ligand concentration (micrograms/ml for top two panels; nanomolar for bottom panel).
(§2) *Escherichia coli*). Each protein was absorbed to the surface of a 35-mm polystyrene Petri dish and exposed to the phage library. Unbound phage were washed away, and bound phage was eluted with acid buffer and amplified by infecting fresh bacterial host cells. […] The selected phage were further characterized by enzyme linked immuno sorbent assay (ELISA) in which the phage were immobilized on the plastic surface of ELISA wells and reacted with the ligands in solution phase. Neutravidin and streptavidin were labeled with alkaline phosphatase, while β-galactosidase was unlabeled. […] Inhibition ELISAs verified that non-immobilized peptide-bearing phage compete with immobilized phage for binding to their respective ligands.

[2] = target: β-galactosidase from Escherichia coli (Escherichia coli) [β-galactosidase: P00722]; experiment: as above
neutravidin = target: T2, neutravidin (chicken (stated for avidin), UniProt P02701 25-152); experiment: direct ELISA: phage immobilized in wells, alkaline phosphatase-labeled neutravidin in solution at varied concentration [top panel]
T2 construct: Labeled with alkaline phosphatase in the ELISA; also called alkaline phosphatase-labeled neutravidin; avidin (from chicken egg white)
Source text: as §1, §2

T1 sequence (P00722 2-1024 limits assumed): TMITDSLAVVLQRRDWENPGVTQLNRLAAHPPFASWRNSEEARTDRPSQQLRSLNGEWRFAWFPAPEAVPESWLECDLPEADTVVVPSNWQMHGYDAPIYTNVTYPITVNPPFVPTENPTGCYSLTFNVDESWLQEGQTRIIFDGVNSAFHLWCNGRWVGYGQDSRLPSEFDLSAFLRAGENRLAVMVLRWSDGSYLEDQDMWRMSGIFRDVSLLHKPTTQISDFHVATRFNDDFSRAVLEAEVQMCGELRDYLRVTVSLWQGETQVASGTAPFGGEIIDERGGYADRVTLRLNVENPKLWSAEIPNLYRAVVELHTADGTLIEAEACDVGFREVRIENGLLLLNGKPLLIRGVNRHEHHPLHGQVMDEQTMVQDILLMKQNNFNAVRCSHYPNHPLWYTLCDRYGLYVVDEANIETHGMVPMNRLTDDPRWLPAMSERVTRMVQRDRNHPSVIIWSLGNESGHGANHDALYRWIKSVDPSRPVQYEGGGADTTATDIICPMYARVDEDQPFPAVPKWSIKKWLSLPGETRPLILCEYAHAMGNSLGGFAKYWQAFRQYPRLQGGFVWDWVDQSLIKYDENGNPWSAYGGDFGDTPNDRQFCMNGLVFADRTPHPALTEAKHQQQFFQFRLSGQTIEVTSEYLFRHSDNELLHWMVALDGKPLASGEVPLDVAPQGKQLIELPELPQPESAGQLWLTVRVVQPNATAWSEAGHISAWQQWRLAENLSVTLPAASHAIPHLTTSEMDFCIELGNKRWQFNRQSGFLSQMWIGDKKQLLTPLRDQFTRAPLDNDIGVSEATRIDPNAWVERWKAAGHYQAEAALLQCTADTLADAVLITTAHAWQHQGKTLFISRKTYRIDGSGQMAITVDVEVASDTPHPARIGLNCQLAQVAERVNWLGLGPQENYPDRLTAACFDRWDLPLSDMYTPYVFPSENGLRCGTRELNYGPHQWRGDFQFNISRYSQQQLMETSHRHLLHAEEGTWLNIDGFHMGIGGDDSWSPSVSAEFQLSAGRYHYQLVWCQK
T2 sequence (P02701 25-152 limits assumed): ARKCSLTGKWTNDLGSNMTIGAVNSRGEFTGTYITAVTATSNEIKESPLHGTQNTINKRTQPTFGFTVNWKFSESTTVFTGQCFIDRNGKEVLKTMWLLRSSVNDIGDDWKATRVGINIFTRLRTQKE
β-galactosidase from Escherichia coli (Escherichia coli) [β-galactosidase: P00722], sequence (P00722 2-1024 limits assumed): as the sequence (P00722 2-1024 limits assumed) above

Row | Binder | EC50 (read off the curve) [1] [nM] | EC50 (read off the curve) (neutravidin) [micrograms/ml] | other results
1 | B1 | ~60 |  | 
2 | VTFAAANT |  |  | EC50 (read off the curve) [2]: 100 nM
3 | B2 |  | ~3 | 
4 | B3 | ~40 |  | 
5 | B4 | ~70 |  | 
6 | B5 |  | ~3 | 
